Reference: patent US20210104294A1 (published 2021)

T1: HLA-A*01:01 (human, UniProt P04439-2 25-302)
T1 chain: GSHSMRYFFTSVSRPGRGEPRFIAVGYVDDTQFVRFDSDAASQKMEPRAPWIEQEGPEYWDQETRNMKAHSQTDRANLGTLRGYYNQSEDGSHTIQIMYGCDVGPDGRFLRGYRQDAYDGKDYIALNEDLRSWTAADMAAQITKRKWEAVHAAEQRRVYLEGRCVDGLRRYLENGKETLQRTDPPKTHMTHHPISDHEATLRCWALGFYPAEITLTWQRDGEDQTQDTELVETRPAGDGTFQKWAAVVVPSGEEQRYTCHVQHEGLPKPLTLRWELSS


Target: T1, HLA-A*01:01
Assay: in vitro peptide-MHC affinity measurement
YVPEHWEYY gave an IC50 of 11.1 nM. With FLWPEAFLY the IC50 was 1.3 nM. DTEFPNFKY gave an IC50 of 80.8 nM. In the case of ATDGKVLLW, the IC50 is reported as 191 nM. For KLDLLEQEY, the IC50 was 70.6 nM. Work on TTDGYLLRL yielded an IC50 of 78.9 nM.

Each binder was assayed against HLA-A*29:02 (human, UniProt P04439 25-308) (assay: in vitro peptide-MHC affinity measurement).
Work on LPLDIQIFY yielded an IC50 of 4.6 nM. For ALSDLALHF, the IC50 was 6 nM. YLPALKVEY showed an IC50 of 2.6 nM. FYPELKLAY showed an IC50 of 0.2 nM. Binder HFLDRHLVF has an IC50 of 1.6 nM. GLPDLVAKY showed an IC50 of 29.7 nM. GLDDKLLHY showed an IC50 of 21.3 nM.

What follows are binders tested against HLA-B*51:01 (human) (assay: in vitro peptide-MHC affinity measurement).
With DGYVVKETI the IC50 was 13.4 nM. In the case of VALLVGEKV, the IC50 is reported as 144 nM. DGRLVINRV gave an IC50 of 13.5 nM. TPESKIRFV was tested, and the IC50 was 84.8 nM. IIYPTPKVV gave an IC50 of 38 nM. In the case of DAYPQRIKF, the IC50 is reported as 31 nM. DGLLRVLTV was tested, and the IC50 was 0.2 nM. With YIIEREPLI the IC50 was 1790 nM. DGLRDLPSI showed an IC50 of 12.6 nM. Work on DAPLNIRSI yielded an IC50 of 6.5 nM. VPPLVPKVL was tested, and the IC50 was 56.3 nM.

These binders were tested against HLA-B*54:01 (human, UniProt P01889 25-309) (assay: in vitro peptide-MHC affinity measurement).
In the case of SAPVNFISA, the IC50 is reported as 16.6 nM. YGFVNYVTA was tested, and the IC50 was 6 nM. Binder FPKETFEGP has an IC50 of 16.4 nM. FVEILIPVA was tested, and the IC50 was 12.2 nM. Binder YPVYQPVGP has an IC50 of 1.7 nM.
